{"source": "patent US20230028110A1", "key": {"[1]": {"molecular_target": "FAPα on FAPα+ fibroblasts (human) (UniProt Q12884)", "assay": "flow cytometry on BJ fibroblasts, anti-human Fc secondary antibody, % IgG bound cells"}, "[2]": {"molecular_target": "Recombinant human FAPα (human) (UniProt Q12884)", "assay": "SPR (Reichert 4SPR), antibody on Protein A chip, antigen flown over"}, "[3]": {"molecular_target": "Recombinant human OX40 (human) (UniProt P43489)", "sequence (P43489 29-216 limits assumed)": "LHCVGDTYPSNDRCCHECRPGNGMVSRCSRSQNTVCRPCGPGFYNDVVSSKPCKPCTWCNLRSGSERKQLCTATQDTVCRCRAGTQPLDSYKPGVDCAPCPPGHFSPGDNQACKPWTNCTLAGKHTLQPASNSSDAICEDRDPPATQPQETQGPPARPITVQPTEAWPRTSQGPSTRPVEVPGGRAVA", "assay": "SPR (Reichert 4SPR), antibody on Protein A chip, antigen flown over"}, "[4]": {"molecular_target": "OX40 on activated CD4 T-cells", "sequence (chain, as listed by the source limits assumed)": "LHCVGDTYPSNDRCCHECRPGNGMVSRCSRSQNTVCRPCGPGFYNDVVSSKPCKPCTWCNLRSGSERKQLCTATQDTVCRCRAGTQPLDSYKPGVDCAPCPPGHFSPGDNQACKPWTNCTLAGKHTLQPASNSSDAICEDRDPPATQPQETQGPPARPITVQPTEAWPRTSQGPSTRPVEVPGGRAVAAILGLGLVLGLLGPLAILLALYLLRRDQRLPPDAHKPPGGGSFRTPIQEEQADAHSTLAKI", "assay": "flow cytometry on anti-CD3/anti-CD28-activated CD4 T-cells, anti-human IgG secondary antibody, % cells bound IgG"}, "[5]": {"molecular_target": "PD-1 on activated CD4 and CD8 T-cells", "sequence (chain, as listed by the source limits assumed)": "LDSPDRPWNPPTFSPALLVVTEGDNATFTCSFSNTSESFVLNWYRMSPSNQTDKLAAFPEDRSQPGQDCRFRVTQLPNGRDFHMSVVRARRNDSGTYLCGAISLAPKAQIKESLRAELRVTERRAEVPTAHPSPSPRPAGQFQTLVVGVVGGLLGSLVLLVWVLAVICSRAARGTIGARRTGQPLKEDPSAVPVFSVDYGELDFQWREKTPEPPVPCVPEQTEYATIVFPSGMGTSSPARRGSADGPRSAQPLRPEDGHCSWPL", "assay": "flow cytometry on anti-CD3/anti-CD28-activated CD8 T-cells, anti-human IgG secondary antibody, % cells bound IgG"}, "[6]": {"molecular_target": "PD-1 on activated CD4 and CD8 T-cells", "assay": "flow cytometry on anti-CD3/anti-CD28-activated CD4 T-cells, anti-human IgG secondary antibody, % cells bound IgG"}, "[7]": {"molecular_target": "Recombinant human TIGIT (human) (UniProt Q495A1)", "sequence (Q495A1 22-141 limits assumed)": "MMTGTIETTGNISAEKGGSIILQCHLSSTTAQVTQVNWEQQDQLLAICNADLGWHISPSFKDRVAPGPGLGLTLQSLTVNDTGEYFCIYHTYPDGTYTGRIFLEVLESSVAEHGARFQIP", "assay": "SPR (Reichert 4SPR), antibody on Protein A chip, antigen flown over"}, "[8]": {"molecular_target": "TIGIT on Vδ1 γδ T-cells (human) (UniProt Q495A1)", "sequence (Q495A1 22-244, stated change not applied)": "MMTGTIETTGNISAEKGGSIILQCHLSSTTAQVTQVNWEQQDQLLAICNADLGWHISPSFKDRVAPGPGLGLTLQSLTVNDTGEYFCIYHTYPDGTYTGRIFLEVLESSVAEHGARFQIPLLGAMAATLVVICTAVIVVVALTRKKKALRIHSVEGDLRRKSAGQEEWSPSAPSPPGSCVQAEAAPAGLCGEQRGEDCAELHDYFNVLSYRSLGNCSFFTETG", "assay": "flow cytometry, anti-human IgG secondary antibody, Vδ1 γδ T-cells"}, "[9]": {"molecular_target": "TIGIT on activated CD8 T-cells (human) (UniProt Q495A1)", "sequence (Q495A1 22-244 limits assumed)": "as the sequence (Q495A1 22-244, stated change not applied) above", "assay": "flow cytometry, anti-human IgG secondary antibody, activated CD8 T-cells"}}, "note": "pKd: −log10 of the molar value."}
{"substance": "Anti-FAPα monoclonal antibody (based on sibrotuzumab)", "values": [{"measurement": "EC50 (read off the curve)", "setting": "[1]", "value": 0.08, "unit": "nM"}, {"measurement": "pKd", "setting": "[2]", "value": 8.41}]}
{"substance": "Anti-OX40 antibody (based on pogalizumab)", "values": [{"measurement": "pKd", "setting": "[3]", "value": 9.09}, {"measurement": "EC50 (read off the curve)", "setting": "[4]", "value": 0.1, "unit": "nM"}]}
{"substance": "Anti-PD-1 antibody (based on pembrolizumab)", "values": [{"measurement": "EC50 (read off the curve)", "setting": "[5]", "value": 0.1, "unit": "nM"}, {"measurement": "EC50 (read off the curve)", "setting": "[6]", "value": 0.2, "unit": "nM"}]}
{"substance": "Anti-TIGIT antibody (based on tiragolumab)", "values": [{"measurement": "pKd", "setting": "[7]", "value": 9.52}, {"measurement": "EC50 (read off the curve)", "setting": "[8]", "value": 8, "unit": "nM"}, {"measurement": "EC50 (read off the curve)", "setting": "[9]", "value": 0.4, "unit": "nM"}]}
